Test: label from the status in PepcDB records

Sequence | protein production
EADYKQATALELATLVREKKVTSEELVKIALAITKRENPTLNAVITLREEAALTEAKALQDTGQPFLGVPLLLKGLGQSLKGESNTNGFGFLQDQVAGGTSTFVKALQNAGFIIIGQTNYPELGWKNISDSKLYGVSVNPWNPNHYSGGSSGGAGASVAAAFVPIASGSDAGGSIRIPASWTGTVGLKPSRGVIIGNSNSAKGQTVHFGLSRTVADTNALFETLLTKKDLPAGHLSQAQPIAYTTESPAGTPISAEAKEAVAEAVAFLKDQGYTLVEVKHPVDGERLMKNYYTVAAGSAGIADFMARQKLKRPLERNDVELLTWALFQTGKNITSEETTAAWTDIALQAQAMDEFYQQYPILLTPTTAATAPSIDNPLLKPEHAAQMEKIDQLSPAEQKQLIYDQWLTAFTYTPFTQQANLFGHPALSVPTYVSKEGLPLGIQFNSALNEDRTLLQLGALFENNHK | failed
EAERVSVEHTSANPTGPLHIGRARNSIIGDSIYRILSRYGYRTVRQYFVNDSGKQMISLYTAYIKYGGPITIENLLENYQKIYREMEKDQSIEKEIEKNIERYENADPEVFGTLRKIAGVMLDGIASTLKRIGIEFDEFDWESDLLLNGSVRKAIDMLETKEEDSARYIEISGKKVFLTRKDGTTLYFARDIAYHLFKAENSEWIIDVLGEDHKDHAKSLNHVLKEMLKLENRVSFMYYSFITLETGKMSTRRGNIVTLQDLVDRTYDEALKIVNEKRPDLSEEERKKIAEVIASSAVRYSIIRVSAPKPITFRWEEALNFESNSAPFIMYS | failed
EAGYEAGTEYLNLDEQPATILDAEHLGIETKEPITIIERLRTANHKPVVYCLDKIAKTYLTCTDYQQSSGSMLEAIKASTNHQIMHAEMDLEAISYEPHISEVLNASPHEGLMLLKVVHYDEKHQPILYSLNYIKSSLVKFTITKSE | not failed
EDLSAQPVQTKFPAYERVVLREAGFLRPVTIFGPIADVAREKLAREEPDIYQIAKSEPRDAGTDQRSSGIIRLHTIKQIIDQDKHALLDVTPNAVDRLNYAQWYPIVVFLNPDSKQGVKTMRMRLCPESRKSARKLYERSHKLRKNNHHLFTTTINLNSMNDGWYGALKEAIQQQQNQLVWVSEGKADGAT | failed
EEWLDILGNGLLRKKTLVPGPPGSSRPVKGQVVTVHLQTSLENGTRVQEEPELVFTLGDCDVIQALDLSVPLMDVGETAMVTADSKYCYGPQGSRSPYIPPHAALCLEVTLKTAVDRPDLEM | not failed
EFVINPNGKSEVCILHEYMQRVLKVRPVYNFFECENPSEPFGASVTIDGVTYGSGTASSKKLAKNKAARATLEILIPDFVKQTSE | not failed
EIEICPKVTQSIHIEKSDTAADTYGFSLSSVEEDGIRRLYVNSVKETGLASKKGLKAGDEILEINNRAADALNSSMLKDFLSQPSLGLLVRTYPELEEGVE | not failed
EIILANISDTVFVTDLSGKFTFICSNIDNIFGYSLAEVNAMGTVETLLGDFRFNEYELKEKGELKNLRHDVQDKQGKIHYLLINLKKVAINGGIYLYSCRDISE | failed
EKITILADAIPELHVEEANDKVMGSIDWEAALKQSAGKEDLAQEMLQMLVDFIPEVNEWIDKALESDISEEELCHYIHKLHGSSSYCGVPRLKQLCNLIETSLRQHQTISDIEPELFELQDEMEKVTKDANLLLSN | not failed
ELDDATCDDIYSGYLKAYEQNWTAYPDAKGVLDRAVATGAPVGILTNGAAPMQQDKLDRTGLGLPELVMLAASTLDSAKPRPEMYARALTHLGARTATIIGDDWTNDVAAPRELGWNALYLDRSGTDPRADIHSLDELFH | failed
ELREARLNAFFSGAPVGMSILDNQLRFVQINELIAHIHGKPAQEHIGKTLEEIAPRIAPLVTPLCQKVLLTGQPILNVELSLPAVNQADSLRHFLVSYFPIPGEGNQLSGVGKVIVEISDVYDELRLRKRAEEALKESI | not failed
EMVDDQAMNEQLYYYFDPGDFKPPLVVYFSGFRLALGVEGANMMRALEAPALIFGEQRILGGSFYVGSKKFEQEIVRIIQTTLKKLGFTANQLVLSGLSMGTYASLYY | failed
ENGSRKQLYRLDLKTLEISQIQTGEDVVQWFGVATDNGAVWYSGQSANNADRLYRLDGTKGKLVWDLSAEKLANIDFTPARDWNYTAPDGTVVEGWYYLPPQFDPSKKYPMLVYYYGGTSPINRTLEGHYSLAMYAAQGYVVYTLNPSGTTGYGQEYAARHVNAWGDRTADEIIGATKEFIRTHSFVNGKK | failed
ENIKTILLTVLVVISLVFTWGIWTFQPNFSEGSSSTESTVRVKHKIEKTTQKLSETVRPRDMFIHDDGAHYKVDDNALYEEIWSDLPHWDVKGIKDISDQYDKAGFKSWFYGIGGSEAKLDLQFSDTIPIDIFQTLFKWSNQSFEYSSFDHILIPFNETKANKKIYLVSYSKQLILEVTVESANYRNIMNDLKNRQSNMPAFSLFSIGSKKEFLLPNKPLTMDKKEFVTESIKTNTFKQALFSDPSIVREDSNYNNRNVLTDGISRLDVNLSQRQVQFQQRNLVQSTSYQTGELIKKSQKYLEDTGSWTDHYQFFNINDSQQLSFYIFMDQIPVINSTAKPFGATSAITVQWANDDILSYKRPNYSLGTNPIKTSETELMGGSEVKMLLSKQTAYDTDKIDQIFLAYQLVSTSTNDDPLVELEPVWAMKVNGKIVPITKDLLRKEGANSGVE | failed
EPAPRGFLLIGANRVAREIGQALARYDRRVLMTDSNWEYISQVRMMGLDYYYGNPISSHADDNLNMIGIGQVVALTPDQHFNIMACMQF | failed
EPEKLGQALTEVYAKANSFTVSSVAAPSWLHRFIIGKKGQNLAKITQQMPKVHIEFTEGEDKITLEGPTEDVSVAQEQIEGMVKDLINR | not failed
EPPDERAVADGWQQLVELGAVDSQHVLTAIGREMARLPVDVKSARMLVAARQHGCVHEMTVIAAFLGVQDPRERPPEAREAADNAHAKFADAR | not failed
EQEDKVSGEKTLAVVSASSDDRPSTRGIINDNTYALGVFRTTANTYAPLYNVKHIYSGGEWGADDVIKVDYRNASFFAYYPYHTATGNYAGLAGGTTLTLQAQLFNAGEDICYGAGEASGGGPVSVYNPFVEFLNMKHAYARLRLTLTRGEKFDKTKKCNIQNITFKSNNANFYLTRSLDIASTAGATGGSAVAAGYVHNPNVNIATGKSVTYEYMFPPQPLDGSKLTILVTVDGVTRSCDISTLGSSLDSGKYYGVSLTFTDVGIILSSAVVTVNNFGGQGNTQVDTEL | not failed

Sequence | protein production
EQQADGTWLMDGWISIRKASNLLEHDLVDEAERYSTLGGYLLWQFGYIPAAGEQITVDGLIFEIVSVNKHNIGKVRVHRTQ | not failed
EREEEPAVQGNPDESLTVEGALEYVELAPQLNLPQQEEDADFHTVAGLIMEELQTIPDVGDFADFHGWRFEVVEKEGQRIERVKITKLP | not failed
ERLETAQDLLELEGITPELAAKLAERQVHTRDDLAELSTDELAEIAGLQEEEASDLIMRARAHWFDEE | failed
ERLILCSPYFIPDESLLEAVTSACYRGVTVELFVSEQADQFAIDHAQSSYYQALLEAGVKIYQFPKPDVLHTKYMIADPDDTTGNEALGVLGSSNLDIRSFGLNYEISLMIAKGNLIHELNALTDRYRTVSFKLTLDKWNQR | failed
ERRLCAILAADMAGYSRLMERNETDVLNRQKLYRRELIDPAIAQAGGQIVKTTGDGMLARFDTAQAALRCALEIQQAMQQREEDTPRKERIQYRIGINIGDIVLEDGDIFGDAVNVAARLEAISEPGAICVSDIVHQITQDRVSEPFTDLGLQKVKNITRPIRVWQWVPDADRDQSHDPQPSHVQH | not failed
ESICLIGHSLGGDLARYFASEFEEVKKLILLDGGYLDLDKILPLDTELEETKNYIKSQIVSDLDVLTSKEKSEAKHWSENMEKAVRQSYHWNVEYNRYELAINYENIEAILRLRRKIQAFKREVGDTLFISPRYPNEATWREEALKELPDYFDTIFLENFGHELYTQAPKEIASLMNEWL | failed
ESKYIEYKKSRKGLSNDIWSTYSAFANTEGGTIYLGIEEKKIEDKKVFVSVGVEDPEKMIEDFWNALYGRSKVSQNILSNKDVKIVNIENKACIEIHVPEAPYSKKPIYVDNKKDLVYKRVDDADRIATEEEYKFMIVNSQDDIDTELLDNYDMSDLNHESIENYRKLLLKNTNDERYANMSQLDLMIDLGAYRKDRSSKDKQYKMTTACLLFFGKYNAISDRFPGFQLDYFKKTNYLDTDWKDRISSGDLGNEDLNVYSFFEKVLIKLTDNIEESFSLNDGLTRQNYARDLKVAIREALVNTLMHAYYDTKQSIKIVNCEDFIEFYNPGNMRINKEDFIHGGHSKDRNSILSTLFRRVGYSEKAGSGGPRIFDVVNRHKLKTPEIELTDMDTNVVLWKQDLMKEFEKYPELDKKVIKYIIDYGSISKGEALKMENMTEYQFRNILKKLKDDNLIKKEGEGPATKYVL | failed
ESTLVNENVLENIPMGIIVVDINCNITSINDYALNIMDKNIESVIGMPVLDIIPTSDTPLVIKTKEKKLGKTQHINKHIVISNCCPIISNNNVIGALCVFQDIS | failed
EVGVNMAVTPGKVIFQNEIMQLIQYEPATATVQRTPLLIVPPWINKYYILDLKPEKSFIKWCVDQGLTVFVISWVNPDKSLADKDFADYMKLGPLTAMDVVEKVTGEMKVHTLGYCVGGTLLASTLAWLAERRRVRVTSATFLTTQVDFTHAGDLMVFVDEEQISAVEREMKVTGVLEGAKMAMAFNMLRPNDLIWSYVVNNYLKGQPPQAFDLLHWNSDATRMPAANHSYYLRNCYLDNKLSAGTMVLDNTTLDLTKVKVPIYNLATREDHIAPAESVLYGSQFFGGPVKFVLSGSGHI | failed
EWQHRGYGRELLAEAERIAREEFDAKKMLIISGVGVREYYRKFGYRKDGPYVSKRLDKRYADYKRTNRFDAELNT | failed
EYSENNAPLFIRAVNSVASTTGAPPWANLVSILEEKNGADPELLVYTVTLINKTLAALPDQDSFYDVTDALEQQGMEALVQRHLGTAGTDVDLRTQLVLYENALKLEDGDI | failed
FETRAKGRSGEALRSLLNLGAKDAAIIRDNREVRIPIQSLQVGDVFVVRPGEKIATDGVVVEGTSAVDQSMITGESVPVEVAQGSHVTGATMNTSGRLLVTAQRVGADTTLAAMGRLVAEAQSNKAPVQKLVDKISQ | failed
FFSVSNIGLHARAYKDKLFVHTASLRSGNPYKQVDLLVLDAKGETVLQGATDDNGNALLNYTLNAGHVLVSRNGRDISILPFNQPALDLSEFAVAGRENPWFDVFAWSGRDLYRPGEMLRISALLRDRDGKPVKPQPVFLRLKQPDGKTFRETRLQPAEQGYLEFTQKIPSDAPTGRWRVEFRTDPASKEAVQGLAVRVEEFLPERMKLELSSAQPVLRAKAPFTLTADAAYLYGAPAAGNRFTANLAVAVEQHPLDNMPGWFFGDATL | failed
FKVRVGEPGQAGNPALVSAYGTGLEGGTTGIQSEFFINTTRAGPGTLSVTIEGPSKVKMDCQETPEGYKVMYTPMAPGNYLISVKYGGPNHIVGSPFKAKVTGQRLVSPGSANETSSI | not failed
FLTEFINYIKKSKVVLLEDLAFQMGLRTQDAINRIQDLLTEGTLTGVIDDRGKFIYITP | not failed
FMPTEKDVKTLQLTMKEYEAKDDWQLYLWKENEDFVGIMGIVKKENQVLEIQHLSVNPSHRHVGIGTKMVQELKSKFLEFTICGNEQTASFCEKC | failed
FTNHKGNPMQTERFNKILREAAKDVGIDKEVSSHILRHSHISLLSQQGVSLKAIMDRVGHSDHRTTLSIYSHVTEQMDKDMMNKLEQVKLG | failed

— a protein production outcome set (Wang et al. 2014)
